Results published in the supplement of paper PMC9233669.
Variants at the floor of the assay were thinned out.

Legend:
biotinyl-Phe-oxazolone = assay: self-aminoacylation, catalytic enhancement (BFO) (fold over background); higher = more active; k-Seq, kA / k0A0; sequences stand for … in GGGAAUGGAUCCACAUCUACGAAUUC…UUCACUGCAGACUUGACGAAGCUG
Procedure, shortened: (§1)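 Mutagenized RNA pools with a 21-nt variable region (0.43 μM) reacted with each biotinyl-aminoacyl-oxazolone at 2–1250 μM. Reactions ran in 50 μL HEPES/NaCl/KCl/MgCl2/CaCl2 buffer with 5% acetonitrile, pH 6.9–7.0, for 90 minutes at room temperature. Streptavidin-captured RNA was quantified by triplicate qPCR and Illumina sequencing, and per-sequence fraction reacted was fit to a pseudo-first-order model with 1000 bootstraps. Catalytic enhancement is median kA divided by the uncatalyzed rate, the low-activity peak of a bimodal Gaussian fit.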

biotinyl-Ile-oxazolone = assay: self-aminoacylation, catalytic enhancement (BIO) (fold over background); higher = more active; k-Seq, kA / k0A0; sequences stand for … in GGGAAUGGAUCCACAUCUACGAAUUC…UUCACUGCAGACUUGACGAAGCUG
Procedure, shortened: as §1

biotinyl-Met-oxazolone = assay: self-aminoacylation, catalytic enhancement (BMO) (fold over background); higher = more active; k-Seq, kA / k0A0; sequences stand for … in GGGAAUGGAUCCACAUCUACGAAUUC…UUCACUGCAGACUUGACGAAGCUG
Procedure, shortened: as §1

biotinyl-Val-oxazolone = assay: self-aminoacylation, catalytic enhancement (BVO) (fold over background); higher = more active; k-Seq, kA / k0A0; sequences stand for … in GGGAAUGGAUCCACAUCUACGAAUUC…UUCACUGCAGACUUGACGAAGCUG
Procedure, shortened: as §1

biotinyl-Leu-oxazolone = assay: self-aminoacylation, catalytic enhancement (BLO) (fold over background); higher = more active; k-Seq, kA / k0A0; sequences stand for … in GGGAAUGGAUCCACAUCUACGAAUUC…UUCACUGCAGACUUGACGAAGCUG
Procedure, shortened: as §1

biotinyl-Trp-oxazolone = assay: self-aminoacylation, catalytic enhancement (BWO) (fold over background); higher = more active; k-Seq, kA / k0A0; sequences stand for … in GGGAAUGGAUCCACAUCUACGAAUUC…UUCACUGCAGACUUGACGAAGCUG
Procedure, shortened: as §1

| Sequence | self-aminoacylation (biotinyl-Phe-oxazolone) | self-aminoacylation (biotinyl-Ile-oxazolone) | self-aminoacylation (biotinyl-Met-oxazolone) | self-aminoacylation (biotinyl-Val-oxazolone) | self-aminoacylation (biotinyl-Leu-oxazolone) | self-aminoacylation (biotinyl-Trp-oxazolone) |
| --- | --- | --- | --- | --- | --- | --- |
| AUGCACCUAGGUCAUUGGGUG [Fam2.2 aminoacylation ribozyme variant] | 16.6 | 2.33 | 2.3 | 2.16 | 2.53 | 2.72 |
| CUACUACAAACAACCGGUCUG [Fam1A.1 aminoacylation ribozyme variant] | 1.12 | 1.19 | 0.601 | 1.14 | 0.845 | 0.954 |
| AAGUUUGCAAAUAGUCGCAAU [Fam3.1 aminoacylation ribozyme variant] | 2.03 | 1.35 | 1.64 | 1.26 | 1.27 | 1.78 |
| CCAUACUUCAAGCAAUCGGUA [Fam1B.1 aminoacylation ribozyme variant] | 1.04 | 1.33 | 1.22 | 1.26 | 1.1 | 1.1 |
| AAGUUUGGUAAUAGUCGCACG [Fam3.1 aminoacylation ribozyme variant] | 1.98 | 1.18 | 1.07 | 1.11 | 1.45 | 1.09 |
| AUUCAGCUGGGUCAUCGGGUG [Fam2.2 aminoacylation ribozyme variant] | 37.9 | 3.79 | 5.66 | 4.76 | 5.07 | 4.72 |
| AUUCACCCAGGUCAUCGUGUG [Fam2.2 aminoacylation ribozyme variant] | 3.46 | 0.798 | 1.04 | 1.04 | 1.29 | 1.1 |
| GUUAUCCUGGUCAUCGAGUGA [Fam2.1 aminoacylation ribozyme variant] | 16.1 | 6.24 | 10.9 | 5.41 | 9.81 | 13.1 |
| CCACACGUCAAGCAAUCGGAC [Fam1B.1 aminoacylation ribozyme variant] | 0.667 | 1.53 | 1.14 | 2.03 | 1.36 | 0.681 |
| CUACUACAAACUAUCGGUCUG [Fam1A.1 aminoacylation ribozyme variant] | 0.752 | 0.869 | 0.949 | 0.839 | 0.713 | 0.717 |
| AUUACUCUGGUCCUCGAGUGA [Fam2.1 aminoacylation ribozyme variant] | 18.2 | 2.31 | 3.62 | 2.01 | 4.34 | 4.62 |
| AUUCACCUAGGUCAUGGGAUG [Fam2.2 aminoacylation ribozyme variant] | 0.397 | 0.596 | 0.66 | 0.657 | 0.611 | 0.315 |
| AUUUACCUGGUCAUCGAGUGA [Fam2.1 aminoacylation ribozyme variant] | 8.89 | 4 | 7.97 | 4.29 | 7.77 | 8.91 |
| CUACUGAAAACAAUCGGUCUG [Fam1A.1 aminoacylation ribozyme variant] | 0.542 | 0.84 | 0.735 | 0.706 | 0.708 | 0.78 |
| CCACACUCCAAGCAAUCGGUC [Fam1B.1 aminoacylation ribozyme variant] | 2.6 | 0.984 | 0.789 | 1.08 | 0.855 | 1.59 |
| CUAUAUCAAACAAUCGGUCUG [Fam1A.1 aminoacylation ribozyme variant] | 1.62 | 0.752 | 0.561 | 0.634 | 0.638 | 1.01 |
| CCACACUCCAAGCAAUCGGGC [Fam1B.1 aminoacylation ribozyme variant] | 1.07 | 2.01 | 1.31 | 2.08 | 1.65 | 2.55 |
| AUUUCCCUGGUCAUCGAGAGA [Fam2.1 aminoacylation ribozyme variant] | 1.31 | 1.2 | 0.896 | 1.27 | 1.1 | 0.74 |
| AUUACCCUAGUCUUCGAGUGA [Fam2.1 aminoacylation ribozyme variant] | 24.6 | 3.09 | 5.54 | 3.22 | 5 | 7.87 |
| AUUACCCGGGUCAUCGAGUGG [Fam2.1 aminoacylation ribozyme variant] | 10.1 | 1.25 | 1.63 | 1.81 | 1.92 | 2.45 |
| AUGACCCUGGACAUCGAGUGA [Fam2.1 aminoacylation ribozyme variant] | 15.9 | 2.27 | 5.12 | 2.11 | 3.95 | 5.26 |
| AUUACCCUGGUCAUAGACUGA [Fam2.1 aminoacylation ribozyme variant] | 0.776 | 0.874 | 0.586 | 0.991 | 0.739 | 0.537 |
| AUUUACCUAGGUCAUCUGGUG [Fam2.2 aminoacylation ribozyme variant] | 16.8 | 2.15 | 2.73 | 1.95 | 3.75 | 3 |
| CUACUUCAUACAAUCGGUGUG [Fam1A.1 aminoacylation ribozyme variant] | 0.976 | 0.839 | 0.959 | 0.956 | 1.14 | 0.545 |
| CCACACUUCGAGCAAUAGGUC [Fam1B.1 aminoacylation ribozyme variant] | 0.533 | 0.703 | 0.588 | 0.785 | 0.446 | 0.361 |
| CCACAUUUCAAGCAUUCGGUC [Fam1B.1 aminoacylation ribozyme variant] | 1.3 | 1.92 | 1.65 | 1.96 | 1.64 | 1.56 |

| Sequence | self-aminoacylation (biotinyl-Phe-oxazolone) | self-aminoacylation (biotinyl-Ile-oxazolone) | self-aminoacylation (biotinyl-Met-oxazolone) | self-aminoacylation (biotinyl-Val-oxazolone) | self-aminoacylation (biotinyl-Leu-oxazolone) | self-aminoacylation (biotinyl-Trp-oxazolone) |
| --- | --- | --- | --- | --- | --- | --- |
| CUACUUCAAUCAAUGGGUCUG [Fam1A.1 aminoacylation ribozyme variant] | 0.579 | 0.889 | 0.801 | 0.809 | 0.912 | 0.627 |
| CUACUUCAGUCAAUCGGUCUG [Fam1A.1 aminoacylation ribozyme variant] | 0.793 | 0.565 | 0.848 | 0.807 | 0.667 | 0.463 |
| AUCCACCUAGGUCAUCGGAUG [Fam2.2 aminoacylation ribozyme variant] | 0.726 | 1.4 | 1.19 | 1.65 | 1.11 | 1.04 |
| CCACACUUCAAGUAAUCGGGC [Fam1B.1 aminoacylation ribozyme variant] | 1.28 | 1.68 | 1.64 | 1.69 | 1.54 | 1.73 |
| AAGUUUGCUUAUAGUCUCAAG [Fam3.1 aminoacylation ribozyme variant] | 1.41 | 1.05 | 1.08 | 0.888 | 0.902 | 0.69 |
| AUUACCCUGGUAAGCGAGUGA [Fam2.1 aminoacylation ribozyme variant] | 42.1 | 2.82 | 5.79 | 3.21 | 4.55 | 6.48 |
| AAGUUUGCUAAAAGUCGUAAG [Fam3.1 aminoacylation ribozyme variant] | 25.8 | 1.12 | 1.28 | 0.971 | 0.982 | 6.5 |
| AAGUUUGCCUAUAGUCGCAAG [Fam3.1 aminoacylation ribozyme variant] | 0.956 | 0.844 | 0.706 | 0.981 | 0.718 | 0.784 |
| AAGUUUGCUAAUAGGCGCAGG [Fam3.1 aminoacylation ribozyme variant] | 0.997 | 0.831 | 0.67 | 0.965 | 0.907 | 1.18 |
| CUACUUCUAACAAUCGGUGUG [Fam1A.1 aminoacylation ribozyme variant] | 0.728 | 0.844 | 0.91 | 0.687 | 0.907 | 0.569 |
| AACUUUGCAAAUAGUCGCAAG [Fam3.1 aminoacylation ribozyme variant] | 4.66 | 2.3 | 1.96 | 1.94 | 2.8 | 1.99 |
| AUACACCCAGGUCAUCGGGUG [Fam2.2 aminoacylation ribozyme variant] | 32.7 | 3.78 | 5.29 | 3.3 | 4.64 | 5.99 |
| AUUACCGUGGUCAUCGACUGA [Fam2.1 aminoacylation ribozyme variant] | 0.518 | 1.06 | 0.911 | 1.11 | 0.742 | 0.507 |
| GCACACUACAAGCAAUCGGUC [Fam1B.1 aminoacylation ribozyme variant] | 1.55 | 1.36 | 0.979 | 1.26 | 1.14 | 1.68 |
| AUUAACCUAGGUCCUCGGGUG [Fam2.2 aminoacylation ribozyme variant] | 18 | 2.58 | 4.07 | 2.81 | 4.72 | 3.09 |
| AUUCACGUAGGACAUCGGGUG [Fam2.2 aminoacylation ribozyme variant] | 24.5 | 3.6 | 5.02 | 4.37 | 5.61 | 5.55 |
| AUAGACCUAGGUCAUCGGGUG [Fam2.2 aminoacylation ribozyme variant] | 19.5 | 2.59 | 2.93 | 2.65 | 3.85 | 4.2 |
| CCACACAUCAAGAAAUCGGUC [Fam1B.1 aminoacylation ribozyme variant] | 1.2 | 0.732 | 0.61 | 0.776 | 0.792 | 0.645 |
| CCACACUUCAAUCAAACGGUC [Fam1B.1 aminoacylation ribozyme variant] | 0.747 | 0.618 | 0.543 | 0.757 | 0.575 | 0.456 |
| AAGUUUGCUCAUAGUUGCAAG [Fam3.1 aminoacylation ribozyme variant] | 1.04 | 0.916 | 0.916 | 0.772 | 0.896 | 0.888 |
| AUUUAUCUAGGUCAUCGGGUG [Fam2.2 aminoacylation ribozyme variant] | 20.1 | 3.08 | 3.91 | 2.45 | 4.97 | 4.3 |
| CUAUUUCAAACAAUAGGUCUG [Fam1A.1 aminoacylation ribozyme variant] | 1.03 | 1.25 | 1.11 | 1.01 | 1.08 | 0.803 |
| AAGUCUGCUAAUAGUCGGAAG [Fam3.1 aminoacylation ribozyme variant] | 18.4 | 1.25 | 2.09 | 1.61 | 1.87 | 7.78 |
| AUUCACCUAGGGCAUUGGGUG [Fam2.2 aminoacylation ribozyme variant] | 42.8 | 3.74 | 6.54 | 3.49 | 8.05 | 6.12 |
| ACACACUUCAACCAAUCGGUC [Fam1B.1 aminoacylation ribozyme variant] | 32.5 | 1.69 | 1.65 | 1.56 | 2.16 | 26.6 |
